Numbering of substitutions follows the chain as printed. Groups on a side chain read outwards from the residue. No end group written: not given here.
T1: biotinylated K-ε-GG peptide (AAA{K-ε-GG}AAA) (also: biotinylated, position not given here)
T1 construct: also called branched diglycine peptide
T1 peptide: AAAK([Gly-Gly])AAA

B1: anti-GGX monoclonal antibody 1C7 (rabbit IgG) (antibody, V domains shown)
VH: QSVKESGGRLVTPGTPLTLTCKVSGFSLSSYYMNWVRQAPGKGLEWIGIMFPNGKIYYATWAKGRFTISKTSTTVDLKIISPTTEDTATYFCTGDDSGDVNIWGPGTLVTVSS
VL: DIVLTQTASPVSAAVGGTVTINCQSSQSVYTNNRLAWYQQKPGQPAKEMIYGASTLPSGVSSRFKGSGSGTQFALTISDVQCDDAATYYCLGTYDCLSADCLAFGGGTKLEIKG
notes: also called anti-GGX antibody 1C7; anti-GGX mAb
B2: anti-GGX monoclonal antibody 2E9 (rabbit IgG) (antibody, V domains shown)
VH: QKQLMESGGRLVTPGTPLTLTCKVSGFSLSSYYMNWVRQAPGKGLEWIGIMFPNGKIYYATWAKGRFTISKTSTTVDLKIISPTTEDTATYFCTGDDSGDVNIWGPGTLVTVSS
VL: B1 VL with T93E, Y94F, L97T, L102F, A103V, K109E, L110V, E111V, I112V
notes: also called anti-GGX antibody 2E9; anti-GGX 2E9 antibody
B3: anti-GGX monoclonal antibody 2H2 (rabbit IgG) (antibody, V domains shown)
VH: B1 VH with K4E, G7R
VL: B1 VL with I2P, V3M, T31S, A46P, A74T, K109E, L110V, E111V, I112V
notes: also called anti-GGX antibody 2H2; anti-GGX 2H2 antibody
B4: anti-GGX monoclonal antibody 2B12 (rabbit IgG) (antibody, V domains shown)
VH: QSVEESGGGLVTPGGALTLTCTASGFSLNRHWMNWVRQAPGKGLEWIGAINESGRTYYATWAKGRFFISKTTTTVDLKITSPTTADTATYFCVRDDDVSNFWGPGTLVTVSS
VL: DPMLTQTPSSVSAAVGGTVSINCQSTKSVYKYNHLSWYQQKPGQPPKQLIFPASTLQSGVPSRFSGSGSGTQFTLTISDVQCDDAATYYCLGLYDCRSGDCNVFGGGTKLEIKG
notes: also called anti-GGX antibody 2B12

Molecular target: T1, biotinylated K-ε-GG peptide …
Test: ELISA, biotinylated peptide on neutravidin plates
Procedure: Biotinylated peptides (GGM and K-ε-GG) were coated at 1 μg/mL in PBS on neutravidin ELISA plates (Thermo Scientific) in triplicate overnight at 4° C. Plates were washed with PBST prior to use. Serial dilutions of GGX mAbs or K-ε-GG mAb (Cell Signaling Technology) at 1 μg/mL were added for 1-2 hours at 25° C. Plates were washed and further developed as described above (see FIG. 1E).

Binding result, no binding (tested: 1 µg/mL):
B1
B2
B3
B4

Source: US20240109958A1 (Genentech, published 2024)
